The text below walks through data of publication PMC11933459 (Nature Communications, 2025).

For orientation: stoichiometry N means a count of units in the complex or per binding partner.

Data set [1] deals with the molecule itself. Kind of data set: cryo-EM structure.
Data set [2] concerns the molecule itself. The data set is described as follows: cryo-EM structure. The source holds these as a separate data set.

Changes are numbered by the printed parent chain. Numbers in names are those of the source.

B1: Full-length human XPR1 (wild type), purified, tags removed (natural protein, UniProt Q9UBH6 1-696, looked up)
chain: MKFAEHLSAHITPEWRKQYIQYEAFKDMLYSAQDQAPSVEVTDEDTVKRYFAKFEEKFFQTCEKELAKINTFYSEKLAEAQRRFATLQNELQSSLDAQKESTGVTTLRQRRKPVFHLSHEERVQHRNIKDLKLAFSEFYLSLILLQNYQNLNFTGFRKILKKHDKILETSRGADWRVAHVEVAPFYTCKKINQLISETEAVVTNELEDGDRQKAMKRLRVPPLGAAQPAPAWTTFRVGLFCGIFIVLNITLVLAAVFKLETDRSIWPLIRIYRGGFLLIEFLFLLGINTYGWRQAGVNHVLIFELNPRSNLSHQHLFEIAGFLGILWCLSLLACFFAPISVIPTYVYPLALYGFMVFFLINPTKTFYYKSRFWLLKLLFRVFTAPFHKVGFADFWLADQLNSLSVILMDLEYMICFYSLELKWDESKGLLPNNSEESGICHKYTYGVRAIVQCIPAWLRFIQCLRRYRDTKRAFPHLVNAGKYSTTFFMVTFAALYSTHKERGHSDTMVFFYLWIVFYIISSCYTLIWDLKMDWGLFDKNAGENTFLREEIVYPQKAYYYCAIIEDVILRFAWTIQISITSTTLLPHSGDIIATVFAPLEVFRRFVWNFFRLENEHLNNCGEFRAVRDISVAPLNADDQTLLEQMMDQDDGVRNRQKNRSWKYNQSISLRRPRLASQSKARDTKVLIEDTDDEANT
With B1, the “stoichiometry N” value in the data set “cryo-EM structure [1]” amounted to 2.

B2: XPR1-E622A/F623A mutant (full-length human XPR1), purified, tags removed (natural protein, UniProt Q9UBH6 1-696, looked up)
chain: B1 chain with E622A, F623A
For the protein B2, the binding result in the data set “cryo-EM structure [2]” was “binds”.
